Laboratory results from US8530213B2, “Compositions and methods for using NADH oxidases” (Georgia Tech Research Corporation, priority 2009, dated 2013).

Assays:
[1] = NOX5 mutants assayed at the cell lysate level, NADPH activity; format: biochemical
Experimental: (§1) Standard assays were performed at 25° C. in 100 mM TEA buffer (pH 7.5) with 5 mM DTT in cuvettes with either a 1 cm or 1 mm path length, depending on the concentration of substrate. Initial activity was measured by following the absorbance change using a Beckman Coulter DU 800 UV/Vis spectrophotometer at 340 nm. Activity of the enzyme was calculated using an extinction coefficient of NAD(P)H, ε, as 6.22 mM^−1 cm^−1. Unless otherwise noted, a substrate concentration of 0.2 mM NADPH was used for assays. 1 unit (U) of activity is defined as […].
(§2) Single mutations were done on residues G178 and L179 into K, R and K, R, H respectively, and double mutations were also investigated with different combinations of the single mutations. The mutation of G178H was excluded due to the fact that the enzyme would then have two histidines next to each other, creating steric hindrance in the binding pocket. The resulting mutants were expressed on small scale and assayed at the cell lysate level.

[2] = NOX5 mutants assayed at the cell lysate level, NADH activity; format: biochemical
Experimental: as §1, §2

B1: L179H: NADH oxidase derived from Lactobacillus plantarum, L179H mutant (protein, listed as Lactobacillus plantarum)
chain: MKVIVIGCTHAGTAAVNQILASNPDTEVTIYERNDNVSFLSCGIALYLGGQVADPQGLFYSSPEQLAKLGATVHMQHDVTDVNTDKHEITVTDLKTGESKTDHYDKLVVTTGSWPVIPPIDGIDSPNVYLCKNWTHAQNLWEAAKPAKRVIVIGGGYIGTELVEAYQKQGKEVTLIDGHPRILNKYLDKEFTDRVEQDFVDHGIKMALNQMVQGFSDDGKEVTVKTDKGSYTADMAILCVGFRPNTGLLKGKVDMNANGSIKTNDYMQTSDPDIYGAGDSVAVHYNPTKKDAYIPLATNAVRQGTLVGLNIFKPTRKYMGTQSTSGLMLFGQTIVSSGMTLEHAQAENVPAAAVTFEDNYRPEFMPTTKPVLMQLVYNPETREILGAQFMSEHDVSQSANVISVMIQNHNTIDDLGFVDMFFQPIYDRPFNYLNLLGQAAIAHAAEAVTE
- NADPH activity [1]: 0.64 U/mg
- NADH activity [2]: 1.37 U/mg

B2: G178K/L179R: NADH oxidase derived from Lactobacillus plantarum, G178K/L179R mutant (protein, listed as Lactobacillus plantarum)
chain: MKVIVIGCTHAGTAAVNQILASNPDTEVTIYERNDNVSFLSCGIALYLGGQVADPQGLFYSSPEQLAKLGATVHMQHDVTDVNTDKHEITVTDLKTGESKTDHYDKLVVTTGSWPVIPPIDGIDSPNVYLCKNWTHAQNLWEAAKPAKRVIVIGGGYIGTELVEAYQKQGKEVTLIDKRPRILNKYLDKEFTDRVEQDFVDHGIKMALNQMVQGFSDDGKEVTVKTDKGSYTADMAILCVGFRPNTGLLKGKVDMNANGSIKTNDYMQTSDPDIYGAGDSVAVHYNPTKKDAYIPLATNAVRQGTLVGLNIFKPTRKYMGTQSTSGLMLFGQTIVSSGMTLEHAQAENVPAAAVTFEDNYRPEFMPTTKPVLMQLVYNPETREILGAQFMSEHDVSQSANVISVMIQNHNTIDDLGFVDMFFQPIYDRPFNYLNLLGQAAIAHAAEAVTE
- NADPH activity [1]: 5.68 U/mg
- NADH activity [2]: 2.00 U/mg

B3: G178R/L179K: NADH oxidase derived from Lactobacillus plantarum, G178R/L179K mutant (protein, listed as Lactobacillus plantarum)
chain: MKVIVIGCTHAGTAAVNQILASNPDTEVTIYERNDNVSFLSCGIALYLGGQVADPQGLFYSSPEQLAKLGATVHMQHDVTDVNTDKHEITVTDLKTGESKTDHYDKLVVTTGSWPVIPPIDGIDSPNVYLCKNWTHAQNLWEAAKPAKRVIVIGGGYIGTELVEAYQKQGKEVTLIDRKPRILNKYLDKEFTDRVEQDFVDHGIKMALNQMVQGFSDDGKEVTVKTDKGSYTADMAILCVGFRPNTGLLKGKVDMNANGSIKTNDYMQTSDPDIYGAGDSVAVHYNPTKKDAYIPLATNAVRQGTLVGLNIFKPTRKYMGTQSTSGLMLFGQTIVSSGMTLEHAQAENVPAAAVTFEDNYRPEFMPTTKPVLMQLVYNPETREILGAQFMSEHDVSQSANVISVMIQNHNTIDDLGFVDMFFQPIYDRPFNYLNLLGQAAIAHAAEAVTE
- NADPH activity [1]: 3.56 U/mg
- NADH activity [2]: 0.94 U/mg

B4: G178R: NADH oxidase derived from Lactobacillus plantarum, G178R mutant (protein, listed as Lactobacillus plantarum)
chain: MKVIVIGCTHAGTAAVNQILASNPDTEVTIYERNDNVSFLSCGIALYLGGQVADPQGLFYSSPEQLAKLGATVHMQHDVTDVNTDKHEITVTDLKTGESKTDHYDKLVVTTGSWPVIPPIDGIDSPNVYLCKNWTHAQNLWEAAKPAKRVIVIGGGYIGTELVEAYQKQGKEVTLIDKLPRILNKYLDKEFTDRVEQDFVDHGIKMALNQMVQGFSDDGKEVTVKTDKGSYTADMAILCVGFRPNTGLLKGKVDMNANGSIKTNDYMQTSDPDIYGAGDSVAVHYNPTKKDAYIPLATNAVRQGTLVGLNIFKPTRKYMGTQSTSGLMLFGQTIVSSGMTLEHAQAENVPAAAVTFEDNYRPEFMPTTKPVLMQLVYNPETREILGAQFMSEHDVSQSANVISVMIQNHNTIDDLGFVDMFFQPIYDRPFNYLNLLGQAAIAHAAEAVTE
- NADPH activity [1]: 0.23 U/mg
- NADH activity [2]: 1.51 U/mg

B5: L179K: NADH oxidase derived from Lactobacillus plantarum, L179K mutant (protein, listed as Lactobacillus plantarum)
chain: MKVIVIGCTHAGTAAVNQILASNPDTEVTIYERNDNVSFLSCGIALYLGGQVADPQGLFYSSPEQLAKLGATVHMQHDVTDVNTDKHEITVTDLKTGESKTDHYDKLVVTTGSWPVIPPIDGIDSPNVYLCKNWTHAQNLWEAAKPAKRVIVIGGGYIGTELVEAYQKQGKEVTLIDGKPRILNKYLDKEFTDRVEQDFVDHGIKMALNQMVQGFSDDGKEVTVKTDKGSYTADMAILCVGFRPNTGLLKGKVDMNANGSIKTNDYMQTSDPDIYGAGDSVAVHYNPTKKDAYIPLATNAVRQGTLVGLNIFKPTRKYMGTQSTSGLMLFGQTIVSSGMTLEHAQAENVPAAAVTFEDNYRPEFMPTTKPVLMQLVYNPETREILGAQFMSEHDVSQSANVISVMIQNHNTIDDLGFVDMFFQPIYDRPFNYLNLLGQAAIAHAAEAVTE
- NADPH activity [1]: 1.03 U/mg
- NADH activity [2]: 5.14 U/mg

B6: G178K/L179K: NADH oxidase derived from Lactobacillus plantarum, G178K/L179K mutant (protein, listed as Lactobacillus plantarum)
chain: MKVIVIGCTHAGTAAVNQILASNPDTEVTIYERNDNVSFLSCGIALYLGGQVADPQGLFYSSPEQLAKLGATVHMQHDVTDVNTDKHEITVTDLKTGESKTDHYDKLVVTTGSWPVIPPIDGIDSPNVYLCKNWTHAQNLWEAAKPAKRVIVIGGGYIGTELVEAYQKQGKEVTLIDKKPRILNKYLDKEFTDRVEQDFVDHGIKMALNQMVQGFSDDGKEVTVKTDKGSYTADMAILCVGFRPNTGLLKGKVDMNANGSIKTNDYMQTSDPDIYGAGDSVAVHYNPTKKDAYIPLATNAVRQGTLVGLNIFKPTRKYMGTQSTSGLMLFGQTIVSSGMTLEHAQAENVPAAAVTFEDNYRPEFMPTTKPVLMQLVYNPETREILGAQFMSEHDVSQSANVISVMIQNHNTIDDLGFVDMFFQPIYDRPFNYLNLLGQAAIAHAAEAVTE
- NADPH activity [1]: 3.11 U/mg
- NADH activity [2]: 0.84 U/mg

B7: G178K: NADH oxidase derived from Lactobacillus plantarum, G178K mutant (protein, listed as Lactobacillus plantarum)
chain: MKVIVIGCTHAGTAAVNQILASNPDTEVTIYERNDNVSFLSCGIALYLGGQVADPQGLFYSSPEQLAKLGATVHMQHDVTDVNTDKHEITVTDLKTGESKTDHYDKLVVTTGSWPVIPPIDGIDSPNVYLCKNWTHAQNLWEAAKPAKRVIVIGGGYIGTELVEAYQKQGKEVTLIDKLPRILNKYLDKEFTDRVEQDFVDHGIKMALNQMVQGFSDDGKEVTVKTDKGSYTADMAILCVGFRPNTGLLKGKVDMNANGSIKTNDYMQTSDPDIYGAGDSVAVHYNPTKKDAYIPLATNAVRQGTLVGLNIFKPTRKYMGTQSTSGLMLFGQTIVSSGMTLEHAQAENVPAAAVTFEDNYRPEFMPTTKPVLMQLVYNPETREILGAQFMSEHDVSQSANVISVMIQNHNTIDDLGFVDMFFQPIYDRPFNYLNLLGQAAIAHAAEAVTE
- NADPH activity [1]: 0.46 U/mg
- NADH activity [2]: 3.92 U/mg

B8: G178K/L179H: NADH oxidase derived from Lactobacillus plantarum, G178K/L179H mutant (protein, listed as Lactobacillus plantarum)
chain: MKVIVIGCTHAGTAAVNQILASNPDTEVTIYERNDNVSFLSCGIALYLGGQVADPQGLFYSSPEQLAKLGATVHMQHDVTDVNTDKHEITVTDLKTGESKTDHYDKLVVTTGSWPVIPPIDGIDSPNVYLCKNWTHAQNLWEAAKPAKRVIVIGGGYIGTELVEAYQKQGKEVTLIDKHPRILNKYLDKEFTDRVEQDFVDHGIKMALNQMVQGFSDDGKEVTVKTDKGSYTADMAILCVGFRPNTGLLKGKVDMNANGSIKTNDYMQTSDPDIYGAGDSVAVHYNPTKKDAYIPLATNAVRQGTLVGLNIFKPTRKYMGTQSTSGLMLFGQTIVSSGMTLEHAQAENVPAAAVTFEDNYRPEFMPTTKPVLMQLVYNPETREILGAQFMSEHDVSQSANVISVMIQNHNTIDDLGFVDMFFQPIYDRPFNYLNLLGQAAIAHAAEAVTE
- NADPH activity [1]: 3.85 U/mg
- NADH activity [2]: 1.24 U/mg

B9: G178R/L179H: NADH oxidase derived from Lactobacillus plantarum, G178R/L179H mutant (protein, listed as Lactobacillus plantarum)
chain: MKVIVIGCTHAGTAAVNQILASNPDTEVTIYERNDNVSFLSCGIALYLGGQVADPQGLFYSSPEQLAKLGATVHMQHDVTDVNTDKHEITVTDLKTGESKTDHYDKLVVTTGSWPVIPPIDGIDSPNVYLCKNWTHAQNLWEAAKPAKRVIVIGGGYIGTELVEAYQKQGKEVTLIDRHPRILNKYLDKEFTDRVEQDFVDHGIKMALNQMVQGFSDDGKEVTVKTDKGSYTADMAILCVGFRPNTGLLKGKVDMNANGSIKTNDYMQTSDPDIYGAGDSVAVHYNPTKKDAYIPLATNAVRQGTLVGLNIFKPTRKYMGTQSTSGLMLFGQTIVSSGMTLEHAQAENVPAAAVTFEDNYRPEFMPTTKPVLMQLVYNPETREILGAQFMSEHDVSQSANVISVMIQNHNTIDDLGFVDMFFQPIYDRPFNYLNLLGQAAIAHAAEAVTE
- NADPH activity [1]: 0.52 U/mg
- NADH activity [2]: 0.64 U/mg
